Test [1] has as its target pHipTLp (HipTLp, Lpg2370) (Legionella pneumophila, UniProt Q5ZSZ6). Description: biochemical.
Test [2] concerns the target co-expressed 6×His-tagged Lpg2369–Lpg2370 (HipTLp–HipSLp) complex (Legionella pneumophila) (UniProt Q5ZSZ7). Description: ITC. A general note: In ITC the heat of successive injections is recorded.
Test [3] concerns the target HipTLp (Lpg2370), 6×His-tagged, expressed alone (autophosphorylated, pHipTLp) (Legionella pneumophila) (UniProt Q5ZSZ6). Description: ITC.

Drawing on paper PMC9325769 (Nature Communications, 2022), this text covers Kd for three compounds.

The Kd is the equilibrium constant for the complex coming apart. A higher Kd goes with lower affinity. In the case of `Nc1ncnc2c1ncn2[C@@H]1O[C@H](COP(=O)(O)OP(=O)(O)NP(=O)(O)O)[C@@H](O)[C@H]1O` [AMP–PNP], the Kd in test [1] is around 70 µM. Take “HipBLp (Lpg2368) (from UniProt Q5ZSZ8 1-75) (natural protein)”: the Kd in test [2] is 1.5 µM.

As for “HipSLp (Lpg2369), untagged wild type (6×His-tag cleaved with TEV protease) (from UniProt Q5ZSZ7 1-102) (natural protein)”, the Kd in test [3] was found to be 0.042 µM.
